# Results as given in patent US20180057603A1.
# Target: erbB2 (p185erbB2/HER2/neu) on SK-BR-3 cells (human) (UniProt P04626)
# Experiment: cell-based or functional assay
substance,measurement,value
anti-erbB2 mAb 4D5 (antibody),foci less than 20 pixels in soft agar (SK-BR-3),72%
